From patent publication US20110111406A1 (published 2011)

Molecular target: T1, soluble mouse IL-31 receptor (mouse, UniProt Q8K5B1 19-499)
T1 construct: Soluble form
T1 sequence (looked up): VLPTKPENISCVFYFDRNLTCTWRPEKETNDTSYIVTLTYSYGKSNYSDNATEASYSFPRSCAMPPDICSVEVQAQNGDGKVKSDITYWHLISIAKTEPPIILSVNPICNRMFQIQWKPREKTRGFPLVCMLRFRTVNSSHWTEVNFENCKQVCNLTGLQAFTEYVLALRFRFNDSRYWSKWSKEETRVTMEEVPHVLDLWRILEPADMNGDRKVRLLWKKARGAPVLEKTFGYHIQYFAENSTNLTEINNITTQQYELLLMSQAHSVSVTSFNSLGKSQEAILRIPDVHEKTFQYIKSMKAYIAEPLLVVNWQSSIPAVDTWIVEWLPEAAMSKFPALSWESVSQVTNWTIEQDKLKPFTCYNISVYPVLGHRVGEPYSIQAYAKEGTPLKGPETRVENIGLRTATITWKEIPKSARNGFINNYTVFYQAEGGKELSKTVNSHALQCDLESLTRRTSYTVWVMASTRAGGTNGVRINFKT
Test: Biacore T100, soluble mouse IL-31 receptor as analyte; KD(pH 5.5)/KD(pH 7.4) compared with Anti-IL31R wild type
Description: Kinetic analysis of antigen-antibody reactions at pH 5.5 and pH 7.4 was carried out using Biacore T100 (GE Healthcare) for the two types of antibodies prepared as mentioned above: Anti-IL31R wild type and Anti-IL31R clone 1 (buffer: DPBS(−) (pH 7.4 or pH 5.5), 150 mM NaCl, 0.01% Tween 20, 0.02% NaN₃). The antibodies were bound to a sensor chip on which recomb-protein A/G (Pierce) was immobilized by amine coupling, and then the soluble mouse IL-31 receptor (prepared according to the method described in WO 2007/142325) adjusted to an appropriate concentration was injected therein as an analyte. All the measurements were carried out at 25° C. Association rate constants kₐ (1/Ms) and dissociation rate constants kd (1/s) were calculated using Biacore T100 Evaluation Software (GE Healthcare), and dissociation constants KD (M) were calculated based on those values (Table 16). Furthermore, the ratio of affinity at pH 5.5 and pH 7.4 was calculated for each clone to evaluate the pH-dependent binding.

- pH-dependent binding ability relative to WT: ~300 times
B1: Anti-IL31R clone 1 (antibody, human IgG1, lambda, V domains shown)
VH: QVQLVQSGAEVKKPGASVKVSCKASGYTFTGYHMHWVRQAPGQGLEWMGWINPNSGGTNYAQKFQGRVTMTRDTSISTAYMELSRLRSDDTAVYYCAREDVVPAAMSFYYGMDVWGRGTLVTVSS
VL: LPVLTQPPSVSVAPGQTARITCGGNNIGSKTVYWYQQEPGQAPVLVVYDDTDRPAGIPERFSGANSGNTATLTISRVEAGDEADYYCQVWDSSTDHGVFGGGTKLTVLG
